Results on three molecules are retold here after US7179464 (Kyowa Kirin, dated 2007).

Assay [1] deals with T1, human IL-5R α chain expressed on cells (human, UniProt Q01344 21-420).
T1 construct: whole, on cells; also called hIL-5R α; CTLL-2(h5R)
T1 sequence (looked up): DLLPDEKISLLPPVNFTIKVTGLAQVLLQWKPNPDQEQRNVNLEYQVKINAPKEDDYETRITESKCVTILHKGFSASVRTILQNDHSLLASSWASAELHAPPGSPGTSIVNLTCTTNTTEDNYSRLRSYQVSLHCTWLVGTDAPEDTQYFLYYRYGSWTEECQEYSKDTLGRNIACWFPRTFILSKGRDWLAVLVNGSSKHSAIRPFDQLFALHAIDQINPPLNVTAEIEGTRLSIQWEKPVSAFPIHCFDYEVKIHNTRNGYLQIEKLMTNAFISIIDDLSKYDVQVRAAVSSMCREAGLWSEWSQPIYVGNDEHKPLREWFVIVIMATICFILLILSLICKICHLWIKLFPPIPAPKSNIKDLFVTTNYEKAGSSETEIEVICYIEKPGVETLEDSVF
Kind of assay: flow cytometry on CTLL-2(h5R) cells, antibody at 10 µg/ml. As to the method: (§1) Briefly, 5 ×10^5 cells obtained by transfecting a human IL-5R gene into CTLL-2 cells (ATCC TIB 214) [hereinafter referred to as "CTLL-2(h5R)"] [J. Exp. Med., 177, 1523 (1993)] or 5 ×10^5 CTLL-2 cells as a control were suspended in an immunocyte staining buffer (PBS containing 1% BSA, 0.02% EDTA and 0.05% sodium azide) and dispensed into a round bottom 96-well plate (100 μl/well). After centrifuging at 350×g for 1 minute at 4° C., the supernatant was discarded. Then, 50 μl of the immunocyte staining buffer containing 10 μg/ml of an hIL-5R α antibody were added to each well and reacted at 4° C. for 30 minutes. After the reaction, the immunocyte staining buffer was added (200 μl/well) and centrifuged at 350×g for 1 minute at 4° C. and then the supernatant was removed to wash the cells. The washing operation was further repeated twice. Thereafter, 50 μl of the immunocyte staining buffer containing FITC-labeled anti-mouse immunoglobulin antibody or FITC-labeled anti-human immunoglobulin antibody (both manufactured by Wako Pure Chemical Industries, Ltd.) diluted 30 folds with a staining buffer were added to each well and reacted at 4° C. for 30 minutes. After the reaction, a similar washing operation was repeated three times. Then, the cells were analyzed with a flow cytometer (Coulter).
On the technique in general: A flow cytometer gives signals particle by particle.

In assay [2] the target is T1, human IL-5R α chain expressed on cells. Put plainly: immunocyte staining, flow cytometry on CTLL-2(h5R) cells. As to the method:
as §1

B1: anti-human IL-5R α chain human CDR-grafted antibody KM8399 (antibody, human IgG1, V domains shown)
VH: EVQLVQSGAEVKKPGASVKVSCKASGYTFTSYVIHWVRQRPGQGLAWMGYINPYNDGTKYNERFKGKVTITSDRSTSTVYMELSSLRSEDTAVYLCGREGIRYYGLLGDYWGQGTLVTVSS
VL: DIQMTQSPSSLSASVGDRVTITCGTSEDIINYLNWYQQKPGKAPKLLIYHTSRLQSGVPSRFSGSGSGTDFTLTISSLQPEDFATYYCQQGYTLPYTFGQGTKVEIK
notes: also called HV.3LV.0; pKANTEX1259HV3LV0
B1: the binding result in assay [1] is recorded as “binds”.

B2: anti-human IL-5R α chain human CDR-grafted antibody KM9399 of human antibody IgG4 subclass (antibody, V domains shown)
VH: EVQLVQSGAEVKKPGASVKVSCKASGYTFTSYVIHWVRQRPGQGLAWMGYINPYNDGTKYNERFKGKVTITSDRSTSTVYMELSSLRSEDTAVYLCGREGIRYYGLLGDYWGQGTLVTVSS
VL: DIQMTQSPSSLSASVGDRVTITCGTSEDIINYLNWYQQKPGKAPKLLIYHTSRLQSGVPSRFSGSGSGTDFTLTISSLQPEDFATYYCQQGYTLPYTFGQGTKVEIK
notes: Same V regions as KM8399 (built from pKANTEX1259HV3LV0); also called pKANTEX1259HV3LV0γ4; transformant KM9399 (FERM BP-5647)
B2: in assay [1], the binding result was “binds”.

B3: anti-human IL-5R α monoclonal antibody KM1257 (antibody, V domains shown)
VH: EVQLVESGGDLVKPGGSLKLSCAASGFTFSDYGMAWIRQISDKRPEWVAAISSGGSYIHFPDSLKGRFTVSRDNAKNTLYLEMSGLKSEDTAMYYCARRGFYGNYRAMDYWGQGTSVTVSS
VL: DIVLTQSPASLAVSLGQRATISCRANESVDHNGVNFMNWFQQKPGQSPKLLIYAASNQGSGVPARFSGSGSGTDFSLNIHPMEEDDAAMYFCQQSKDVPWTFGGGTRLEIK
notes: Mouse IgG1; also called hybridoma KM1257 (FERM BP-5133)
Take B3: the binding result in assay [2] is reported as “binds”.
